Numbering of substitutions follows the chain as printed. In names and notes the source's numbering stands.

Sequences and labels used below:
B1: Recombinant LipL32 wild type, mature form (rLipL32; 21-272) V35S (protein)
chain: GAFGGLPSLKSSFSLSESTVPGTNETVKTFLPYGSVINYYGYVKPGQAPDGLVDGNKKAYYLYVWIPAVIAEMGVRMISPTGEIGEPGDGDLVSDAFKAATPEEKSMPHWFDTWIRVERMSAIMPDQIAKAAKAKPVQKLDDDDDGDDTYKEERHNKYNSLTRIKIPNPPKSFDDLKNIDTKKLLVRGLYRISFTTYKPGEVKGSFVASVGLLFPPGIPGVSPLIHSNPEELQKQAIAAEESLKKAASDATK
B2: Recombinant LipL32 wild type, mature form (rLipL32; 21-272) F34S (protein)
chain: B1 chain with F13S, S14V
B3: Recombinant LipL32 wild type, mature form (rLipL32; 21-272) L36S (protein)
chain: B1 chain with S14V, L15S

Sequence of Recombinant human Toll-like receptor 2 (rTLR2), O60603 (O60603 21-784): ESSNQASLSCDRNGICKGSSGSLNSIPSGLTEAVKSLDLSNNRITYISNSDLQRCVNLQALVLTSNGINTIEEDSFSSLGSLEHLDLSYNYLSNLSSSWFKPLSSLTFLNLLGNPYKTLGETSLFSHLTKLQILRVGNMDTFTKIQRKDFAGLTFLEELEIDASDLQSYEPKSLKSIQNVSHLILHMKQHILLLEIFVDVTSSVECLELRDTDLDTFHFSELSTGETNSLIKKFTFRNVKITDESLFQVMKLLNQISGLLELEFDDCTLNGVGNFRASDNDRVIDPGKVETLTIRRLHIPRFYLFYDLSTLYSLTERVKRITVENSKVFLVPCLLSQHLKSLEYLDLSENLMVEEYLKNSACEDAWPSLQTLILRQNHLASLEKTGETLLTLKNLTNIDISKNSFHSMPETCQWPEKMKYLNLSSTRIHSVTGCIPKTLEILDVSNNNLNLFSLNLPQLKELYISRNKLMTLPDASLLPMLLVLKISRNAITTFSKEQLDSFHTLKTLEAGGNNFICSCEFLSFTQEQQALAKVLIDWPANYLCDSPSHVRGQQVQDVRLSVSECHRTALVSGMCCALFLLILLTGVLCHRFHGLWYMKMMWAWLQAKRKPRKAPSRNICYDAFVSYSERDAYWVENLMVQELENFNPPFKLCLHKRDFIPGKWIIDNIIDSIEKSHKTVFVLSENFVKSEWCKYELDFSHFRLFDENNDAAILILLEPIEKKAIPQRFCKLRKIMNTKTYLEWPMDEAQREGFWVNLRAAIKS

The experiment concerns the target Recombinant human Toll-like receptor 2 (rTLR2), O60603. Put plainly: ELISA. The settings on record: chain shown with the change;; parent: est. 0.37; read off a plot.
As for B1, the response is 0.25 OD450nm. The figure for B2 is 0.31 OD450nm; for B3 it is 0.23 OD450nm.
